Laboratory results published in publication PMC3290569, “Macro-to-Micro Structural Proteomics: Native Source Proteins for High-Throughput Crystallization” (PLoS ONE, 2012).

B1: 6-phospho-beta-glucosidase (BglA) (enzyme, Escherichia coli, UniProt Q46829 1-479, looked up)
chain: MIVKKLTLPKDFLWGGAVAAHQVEGGWNKGGKGPSICDVLTGGAHGVPREITKEVLPGKYYPNHEAVDFYGHYKEDIKLFAEMGFKCFRTSIAWTRIFPKGDEAQPNEEGLKFYDDMFDELLKYNIEPVITLSHFEMPLHLVQQYGSWTNRKVVDFFVRFAEVVFERYKHKVKYWMTFNEINNQRNWRAPLFGYCCSGVVYTEHENPEETMYQVLHHQFVASALAVKAARRINPEMKVGCMLAMVPLYPYSCNPDDVMFAQESMRERYVFTDVQLRGYYPSYVLNEWERRGFNIKMEDGDLDVLREGTCDYLGFSYYMTNAVKAEGGTGDAISGFEGSVPNPYVKASDWGWQIDPVGLRYALCELYERYQRPLFIVENGFGAYDKVEEDGSINDDYRIDYLRAHIEEMKKAVTYDGVDLMGYTPWGCIDCVSFTTGQYSKRYGFIYVNKHDDGTGDMSRSRKKSFNWYKEVIASNGEKL
notes: 6-phospho-beta-glucosidase BglA, Escherichia coli, native source protein; source: purified from E. coli DH5α cells (CaptoQ, phenyl sepharose, MonoQ)
B2: Glutamate dehydrogenase (GDH) (enzyme, Escherichia coli, UniProt P00370 1-447, looked up)
chain: MDQTYSLESFLNHVQKRDPNQTEFAQAVREVMTTLWPFLEQNPKYRQMSLLERLVEPERVIQFRVVWVDDRNQIQVNRAWRVQFSSAIGPYKGGMRFHPSVNLSILKFLGFEQTFKNALTTLPMGGGKGGSDFDPKGKSEGEVMRFCQALMTELYRHLGADTDVPAGDIGVGGREVGFMAGMMKKLSNNTACVFTGKGLSFGGSLIRPEATGYGLVYFTEAMLKRHGMGFEGMRVSVSGSGNVAQYAIEKAMEFGARVITASDSSGTVVDESGFTKEKLARLIEIKASRDGRVADYAKEFGLVYLEGQQPWSLPVDIALPCATQNELDVDAAHQLIANGVKAVAEGANMPTTIEATELFQQAGVLFAPGKAANAGGVATSGLEMAQNAARLGWKAEKVDARLHHIMLDIHHACVEHGGEGEQTNYVQGANIAGFVKVADAMLAQGVI
notes: glutamate dehydrogenase, Escherichia coli, native source protein; hexamer (dimer of trimers); source: purified from E. coli DH5α cells (CaptoQ, phenyl sepharose, MonoQ)

Biological target: the molecule itself
Experiment: crystal structure; novel structures of native source E. coli proteins, solved by molecular replacement and refined; oligomer seen in the crystal

| Protein | stoichiometry N |
| --- | --- |
| B1 | 2 |
| B2 | 6 |
